B1: His6-OSK1^S53D (natural protein, rice, UniProt Q6PL11 1-173, looked up)
chain: MAAEGEKKMITLKSSDGEEFEVEEAVAMESQTIRHMIEDDCADNGIPLPNVNDKILSKVIEYCNKHVHAAAAAASKAADDAASAAAAVPPPSGEDLKNWDADFVKVDQATLFDLILAANYLNIKGLLDLTCQTVADMIKGKTPEEIRKTFNIKNDFTPEEEEEIRRENQWAFE
B2: GST-OSK1 (natural protein, rice, UniProt Q6PL11 1-173, looked up)
chain: MAAEGEKKMITLKSSDGEEFEVEEAVAMESQTIRHMIEDDCADNGIPLPNVNSKILSKVIEYCNKHVHAAAAAASKAADDAASAAAAVPPPSGEDLKNWDADFVKVDQATLFDLILAANYLNIKGLLDLTCQTVADMIKGKTPEEIRKTFNIKNDFTPEEEEEIRRENQWAFE
notes: not shown: GST, N-terminal, kept
B3: GST-OSK1^S53D (natural protein, rice, UniProt Q6PL11 1-173, looked up)
chain: MAAEGEKKMITLKSSDGEEFEVEEAVAMESQTIRHMIEDDCADNGIPLPNVNDKILSKVIEYCNKHVHAAAAAASKAADDAASAAAAVPPPSGEDLKNWDADFVKVDQATLFDLILAANYLNIKGLLDLTCQTVADMIKGKTPEEIRKTFNIKNDFTPEEEEEIRRENQWAFE
notes: as for B2
B4: His6-OSK1 (natural protein, rice, UniProt Q6PL11 1-173, looked up)
chain: MAAEGEKKMITLKSSDGEEFEVEEAVAMESQTIRHMIEDDCADNGIPLPNVNSKILSKVIEYCNKHVHAAAAAASKAADDAASAAAAVPPPSGEDLKNWDADFVKVDQATLFDLILAANYLNIKGLLDLTCQTVADMIKGKTPEEIRKTFNIKNDFTPEEEEEIRRENQWAFE

Legend:
Conditions in all cases: both partners purified
His6-TF-SUMO-OsCOI1b = biological target: T1, His6-TF-SUMO-OsCOI1b (rice, UniProt Q60EH4 1-597); assay: MST
T1 construct: also called His6-OsCOI1b
T1 sequence (looked up): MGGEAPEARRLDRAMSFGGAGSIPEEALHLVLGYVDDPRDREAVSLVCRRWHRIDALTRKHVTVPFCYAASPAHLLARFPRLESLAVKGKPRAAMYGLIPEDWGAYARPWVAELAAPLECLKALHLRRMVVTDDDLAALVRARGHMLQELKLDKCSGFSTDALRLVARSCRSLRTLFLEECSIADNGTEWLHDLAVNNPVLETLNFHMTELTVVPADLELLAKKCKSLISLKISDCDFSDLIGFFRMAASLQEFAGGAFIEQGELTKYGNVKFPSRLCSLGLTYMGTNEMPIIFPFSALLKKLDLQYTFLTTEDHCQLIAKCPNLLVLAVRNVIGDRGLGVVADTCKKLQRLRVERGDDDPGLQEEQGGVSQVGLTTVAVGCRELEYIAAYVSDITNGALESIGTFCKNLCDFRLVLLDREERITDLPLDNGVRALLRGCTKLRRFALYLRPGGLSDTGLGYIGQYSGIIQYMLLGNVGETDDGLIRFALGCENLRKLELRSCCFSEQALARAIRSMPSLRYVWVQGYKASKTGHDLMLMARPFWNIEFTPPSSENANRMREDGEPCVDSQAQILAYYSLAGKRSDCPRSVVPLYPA

[1] = biological target: T2, His6-TF-SUMO-tagged OsCOI1b^R9A (rice, UniProt Q60EH4 1-597, R9A); assay: pull-down
T2 sequence (looked up): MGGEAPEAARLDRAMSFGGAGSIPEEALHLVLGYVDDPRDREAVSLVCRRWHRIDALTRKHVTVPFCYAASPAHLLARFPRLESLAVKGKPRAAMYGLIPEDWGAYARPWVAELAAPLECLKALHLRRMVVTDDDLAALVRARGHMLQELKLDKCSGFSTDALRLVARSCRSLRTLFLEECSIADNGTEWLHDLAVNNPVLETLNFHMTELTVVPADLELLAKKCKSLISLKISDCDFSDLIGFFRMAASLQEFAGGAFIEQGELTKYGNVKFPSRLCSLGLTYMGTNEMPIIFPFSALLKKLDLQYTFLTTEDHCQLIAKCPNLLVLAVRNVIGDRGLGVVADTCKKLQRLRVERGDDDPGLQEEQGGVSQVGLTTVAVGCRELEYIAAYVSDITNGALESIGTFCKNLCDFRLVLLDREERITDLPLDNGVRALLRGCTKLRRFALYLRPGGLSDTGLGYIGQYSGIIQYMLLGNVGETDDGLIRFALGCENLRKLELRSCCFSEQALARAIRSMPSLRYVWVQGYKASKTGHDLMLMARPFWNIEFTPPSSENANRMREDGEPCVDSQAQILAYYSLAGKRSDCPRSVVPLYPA

[2] = biological target: T3, His6-TF-SUMO-tagged OsCOI1b^R10A (rice, UniProt Q60EH4 1-597, R10A); assay: pull-down
T3 sequence (looked up): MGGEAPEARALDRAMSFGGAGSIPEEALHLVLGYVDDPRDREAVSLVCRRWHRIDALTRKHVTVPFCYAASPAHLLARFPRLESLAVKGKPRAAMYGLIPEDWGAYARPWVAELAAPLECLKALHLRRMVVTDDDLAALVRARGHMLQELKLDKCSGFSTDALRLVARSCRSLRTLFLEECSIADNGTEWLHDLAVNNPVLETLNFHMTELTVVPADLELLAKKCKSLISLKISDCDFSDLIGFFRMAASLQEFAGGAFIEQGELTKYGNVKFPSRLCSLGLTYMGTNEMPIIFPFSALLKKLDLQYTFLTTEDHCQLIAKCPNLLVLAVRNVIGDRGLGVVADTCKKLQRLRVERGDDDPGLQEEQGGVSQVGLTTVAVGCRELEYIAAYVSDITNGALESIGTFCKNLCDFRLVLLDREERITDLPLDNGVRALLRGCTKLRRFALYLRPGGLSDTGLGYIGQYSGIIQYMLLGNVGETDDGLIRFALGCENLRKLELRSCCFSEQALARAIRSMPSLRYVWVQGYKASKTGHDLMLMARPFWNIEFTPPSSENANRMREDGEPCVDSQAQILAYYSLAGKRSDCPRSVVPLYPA

[3] = biological target: T4, His6-TF-SUMO-tagged OsCOI1b^R13A (rice, UniProt Q60EH4 1-597, R13A); assay: pull-down
T4 sequence (looked up): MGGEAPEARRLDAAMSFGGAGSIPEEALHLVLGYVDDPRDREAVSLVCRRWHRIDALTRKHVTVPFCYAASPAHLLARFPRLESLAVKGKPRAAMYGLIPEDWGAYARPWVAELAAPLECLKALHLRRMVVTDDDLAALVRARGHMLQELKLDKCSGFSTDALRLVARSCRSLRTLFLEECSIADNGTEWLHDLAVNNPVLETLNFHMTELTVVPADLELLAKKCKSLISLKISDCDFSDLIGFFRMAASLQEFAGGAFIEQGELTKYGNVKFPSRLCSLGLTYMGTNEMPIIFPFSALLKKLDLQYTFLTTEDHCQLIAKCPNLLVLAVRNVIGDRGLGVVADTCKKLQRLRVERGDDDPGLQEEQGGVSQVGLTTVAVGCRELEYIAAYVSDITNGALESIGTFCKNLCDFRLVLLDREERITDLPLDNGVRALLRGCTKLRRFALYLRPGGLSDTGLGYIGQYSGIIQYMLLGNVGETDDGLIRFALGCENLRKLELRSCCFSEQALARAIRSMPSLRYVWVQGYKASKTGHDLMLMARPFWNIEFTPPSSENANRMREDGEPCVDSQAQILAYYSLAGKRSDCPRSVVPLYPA

Row | Binder | Kd (His6-TF-SUMO-OsCOI1b) | binding result [1] | binding result [2] | binding result [3]
1 | B1 | 12.7 nM | – | – | –
2 | B2 | – | binds | binds | binds
3 | B3 | – | binds | binds | binds
4 | B4 | 53.8 nM | – | – | –
